# Laboratory results taken from PMC11847488, “Hydroxycinnamoyl-coenzyme A: tetrahydroxyhexanedioate hydroxycinnamoyl transferase (HHHT) from Phaseolus vulgaris L.: phylogeny, expression pattern, kinetic parameters, and active site analysis” (PeerJ, 2025).
# B1: HHHT (PvHHHT) (Phaseolus vulgaris) (protein)
# chain: MVTIVASYRVLPCEETPKGHLWLADSDQVVRSGHTPTFYVYQAKHNHDTNERLRKSLGEILVHYYPVAGRLSLAEDARIQLDCNAKGVTFIEAETTKSMADYGDFSPGVVAELVPKIDYTQPVEEIPLMLVQSTRLPGGNGFVIGLAVCHVLSDGLGSIQFINSWAKLGRGETLEPHELPYLDRTVLKHQHSSTSPSPCFDHPELKPLPLKLGSSDINAEQKKKTRAVLLKLTRQQVEKLKKEANEQPLQEGVRAYSRFEALAGHIWRSASKARELEEKQPTVVRFNADIRSRVIPPLPKNYYGNALAATVTPKCYVGEIVSKPLSYAAQKVREAIEKLTNEYIRSQLKNVLGEEQLDCIRRLFMGEGERRNVPFAGNPNLHITSWMSMPLYEADFGWGKPVNFGLAYVFAQDRAVIILSPHGDGSIVISMTFQEEHLELFKKFFYETI
# notes: full length, N-terminal 6xHis tag (pET28a(+)), codon-optimized, E. coli Rosetta 2 (DE3) pLysS, IMAC purified; tag cleavage not mentioned
# Columns and labels:
# Test in all cases: purified protein
# Format in all cases: biochemical, Phaseolus vulgaris
# purified protein [1] = substrate: CC(C)(COP(=O)(O)OP(=O)(O)OC[C@H]1O[C@@H](n2cnc3c(N)ncnc32)[C@H](O)[C@@H]1OP(=O)(O)O)[C@@H](O)C(=O)NCCC(=O)NCCSC(=O)/C=C/c1ccc(O)c(O)c1; details: co-substrate saccharic acid 20 mM, 100 mM sodium phosphate, pH 7.5, 1 mM EDTA, 25 °C
# purified protein [2] = substrate: CC(C)(COP(=O)(O)OP(=O)(O)OC[C@H]1O[C@@H](n2cnc3c(N)ncnc32)[C@H](O)[C@@H]1OP(=O)(O)O)[C@@H](O)C(=O)NCCC(=O)NCCSC(=O)/C=C/c1ccc(O)cc1; details: co-substrate saccharic acid 20 mM, 100 mM sodium phosphate, pH 7.5, 1 mM EDTA, 25 °C
# purified protein [3] = substrate: COc1cc(/C=C/C(=O)SCCNC(=O)CCNC(=O)[C@H](O)C(C)(C)COP(=O)(O)OP(=O)(O)OC[C@H]2O[C@@H](n3cnc4c(N)ncnc43)[C@H](O)[C@@H]2OP(=O)(O)O)ccc1O; details: co-substrate saccharic acid 20 mM, 100 mM sodium phosphate, pH 7.5, 1 mM EDTA, 25 °C
# purified protein [4] = substrate: O=C(O)[C@@H](O)[C@@H](O)[C@H](O)[C@@H](O)C(=O)O; details: co-substrate p-coumaroyl-CoA 100 μM, 100 mM sodium phosphate, pH 7.5, 1 mM EDTA, 25 °C
# purified protein [5] = substrate: O=C(O)[C@@H](O)[C@H](O)[C@H](O)[C@@H](O)C(=O)O; details: co-substrate p-coumaroyl-CoA 100 μM, 100 mM sodium phosphate, pH 7.5, 1 mM EDTA, 25 °C
protein,measurement,setting,value
B1,Km,purified protein [1],5.8 ± 0.4 µM
same,kcat,purified protein [1],3.4 ± 0.1 s⁻¹
same,kcat/Km,purified protein [1],590000 ± 40000 M⁻¹ s⁻¹
same,Km,purified protein [2],7.2 ± 0.5 µM
same,kcat,purified protein [2],5.9 ± 0.1 s⁻¹
same,kcat/Km,purified protein [2],820000 ± 60000 M⁻¹ s⁻¹
same,Km,purified protein [3],9.6 ± 0.4 µM
same,kcat,purified protein [3],6 ± 0.1 s⁻¹
same,kcat/Km,purified protein [3],630000 ± 20000 M⁻¹ s⁻¹
same,Km,purified protein [4],"5,200 ± 500 μM"
same,kcat,purified protein [4],6.4 ± 0.2 s⁻¹
same,kcat/Km,purified protein [4],1200 ± 100 M⁻¹ s⁻¹
same,Km,purified protein [5],"4,400 ± 700 μM"
same,kcat,purified protein [5],1.5 ± 0.1 s⁻¹
same,kcat/Km,purified protein [5],340 ± 50 M⁻¹ s⁻¹
